Measured values published in patent publication US9976134B2, “Thermolysin variants” (Danisco US Inc., priority 2007, dated 2018).
Where a chain is given by its changes, count along the chain named. In names and notes the source's numbering stands.

B1: Y151D: single-substitution thermolysin variant (SEQ ID NO:3 numbering) (protein, listed as Geobacillus caldoproteolyticus)
chain: ITGTSTVGVGRGVLGDQKNINTTYSTYYYLQDNTRGNGIFTYDAKYRTTLPGSLWADADNQFFASYDAPAVDAHYYAGVTYDYYKNVHNRLSYDGNNAAIRSSVHYSQGYNNAFWNGSQMVYGDGDGQTFIPLSGGIDVVAHELTHAVTDDTAGLIYQNESGAINEAISDIFGTLVEFYANKNPDWEIGEDVYTPGISGDSLRSMSDPAKYGDPDHYSKRYTGTQDNGGVHINSGIINKAAYLISQGGTHYGVSVVGIGRDKLGKIFYRALTQYLTPTSNFSQLRAAAVQSATDLYGSTSQEVASVKQAFDAVGVK
B2: T049I: single-substitution thermolysin variant (SEQ ID NO:3 numbering) (protein, listed as Geobacillus caldoproteolyticus)
chain: B1 chain with T49I, D151Y
B3: Y151W: single-substitution thermolysin variant (SEQ ID NO:3 numbering) (protein, listed as Geobacillus caldoproteolyticus)
chain: B1 chain with D151W
B4: Y151Q: single-substitution thermolysin variant (SEQ ID NO:3 numbering) (protein, listed as Geobacillus caldoproteolyticus)
chain: B1 chain with D151Q
B5: Y151R: single-substitution thermolysin variant (SEQ ID NO:3 numbering) (protein, listed as Geobacillus caldoproteolyticus)
chain: B1 chain with D151R
B6: Y151M: single-substitution thermolysin variant (SEQ ID NO:3 numbering) (protein, listed as Geobacillus caldoproteolyticus)
chain: B1 chain with D151M
B7: I156M: single-substitution thermolysin variant (SEQ ID NO:3 numbering) (protein, listed as Geobacillus caldoproteolyticus)
chain: B1 chain with D151Y, I156M
B8: Y151E: single-substitution thermolysin variant (SEQ ID NO:3 numbering) (protein, listed as Geobacillus caldoproteolyticus)
chain: B1 chain with D151E
B9: Y151V: single-substitution thermolysin variant (SEQ ID NO:3 numbering) (protein, listed as Geobacillus caldoproteolyticus)
chain: B1 chain with D151V
B10: Y151H: single-substitution thermolysin variant (SEQ ID NO:3 numbering) (protein, listed as Geobacillus caldoproteolyticus)
chain: B1 chain with D151H
B11: T049D: single-substitution thermolysin variant (SEQ ID NO:3 numbering) (protein, listed as Geobacillus caldoproteolyticus)
chain: B1 chain with T49D, D151Y
B12: I156R: single-substitution thermolysin variant (SEQ ID NO:3 numbering) (protein, listed as Geobacillus caldoproteolyticus)
chain: B1 chain with D151Y, I156R
B13: I156T: single-substitution thermolysin variant (SEQ ID NO:3 numbering) (protein, listed as Geobacillus caldoproteolyticus)
chain: B1 chain with D151Y, I156T
B14: Y151S: single-substitution thermolysin variant (SEQ ID NO:3 numbering) (protein, listed as Geobacillus caldoproteolyticus)
chain: B1 chain with D151S

Key:
[1] = TIDE 2X 0.78 g/l, 6 gpg, pH 8.2, 30 min at 20°C, A405; variant vs wild-type thermolysin at same protein concentration
Description: Thermolysin containing protease samples were obtained from filtered broth of cultures grown in microtiter plates for 3 days at 37° C. with shaking at 280 rpm under humidified aeration.
• Thermolysin containing culture supernatants (˜100-200 μg protein per ml) • TIDE® 2× (nil enzymes) detergent (P&G) • Dilution Buffer (10 mM NaCl, 0.1 mM CaCl2, 0.005% TWEEN®-80) The equipment used was a Biomek FX Robot (Beckman Coulter), a SpectraMAX MTP Reader (type 340; Molecular Devices), and an iEMS incubator/shaker (Thermo/Labsystems). MTPs were obtained from Costar (type 9017). TIDE® 2× Liquid Detergent Preparation (US Conditions):
Milli-Q water was adjusted to 6 gpg water hardness using a (Ca/Mg 3:1) hardness stock solution (282.3 g/L CaCl2.2H20, 130.1 g/L MgCl2.6H2O), 0.78 g/1 detergent TIDE® 2× was added, and the detergent solution was stirred vigorously for at least 15 minutes. Then, 5 mM HEPES was added and the pH adjusted to 8.2.
Microswatches of ¼ inch circular diameter were obtained from CFT (Vlaardingen, The Netherlands).
Two microswatches were placed vertically into each well of a 96-well microtiter plate to expose the whole surface area (i.e., not flat on the bottom of the well).
The incubator was set to 20° C. The filtered culture broth samples were tested at an appropriate concentration by dilution with a mixture of 10 mM NaCl, 0.1 mM CaCl2, 0.005% TWEEN®-80 solution. The detergent solution was prepared as described above. Then, 190 μl of detergent solution were added to each well of the MTP, containing microswatches. To this mixture, 10 μl of diluted enzyme solution were added to each well (to provide a total volume of 200 μl/well). The MTP was covered with a plate seal and placed in an incubator for 30 minutes at 20° C., with agitation at 1400 rpm (iEMS incubator). Following incubation under the appropriate conditions, 100 μl of solution from each well was removed and placed into a new MTP. Subsequently this MTP, containing 100 μl of solution/well, was read at 405 nm in a MTP-Reader. Blank controls, containing 2 microswatches/well and detergent, without the addition of thermolysin containing samples, were also included in the test.
The observed absorbance value was corrected for the blank value (obtained after incubation of microswatches in the absence of added enzyme). The resulting absorbance was a measure for the hydrolytic activity. For each sample (thermolysin or a variant) the performance index (PI) was calculated. The performance index is a comparison of the performance of the variant (actual value) and the standard thermolysin enzyme (theoretical value) at the same protein concentration. In addition, the theoretical values were calculated, using the parameters of the Langmuir equation of the standard enzyme.
C. Stability Assay in the Presence of Detergent
In this example, experiments were conducted to determine the stain removal performance of various singly substituted thermolysin (also referred to herein as Proteinase-T or PrT) variants. As described in Example 1, the stain cleaning performance of thermolysin variants was done utilizing a blood/milk/ink (BMI) microswatch assay. Briefly the cleaning performance of chosen single-substitution thermolysin variants was assessed in a TIDE® 2× microswatch assay.

[2] = Stability assay in 25% TIDE 2X detergent with DTPA (residual Abz-AGLA-Nba protease activity); format: physicochemical; conditions: 60 min at 32°C; variant residual AGLA activity divided by wild-type residual activity
In short: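 Thermolysin variant culture supernatants stressed in TIDE 2× detergent, with or without DTPA: 60 min at 32° C or 180 min at 50° C. Residual versus unstressed activity on Abz-AGLA-Nba read kinetically at 25° C (Ex 350/Em 420). Performance index is variant residual activity divided by wild-type thermolysin residual activity.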

[3] = Stability assay in 25% TIDE 2X detergent without DTPA (residual Abz-AGLA-Nba protease activity); format: physicochemical; conditions: 180 min at 50°C; variant residual AGLA activity divided by wild-type residual activity
Description: The stability of thermolysin and variants thereof was measured after incubation under defined conditions in the presence of 25% TIDE® 2× detergent. The initial and residual activity was determined.
MTPs were obtained from Costar (type 9017) and from Greiner (black plate, type 655076). Test Method Unstressed Conditions:
First, 20 μl thermolysin containing culture supernatant was diluted with 180 μl MES assay buffer. Then, 20 μl diluted supernatant was diluted further with 180 μl MES assay buffer. Subsequently 10 μl of this dilution was transferred into 190 μl AGLA-substrate solution in a pre-warmed plate (Greiner 655076) at 25° C. Any air bubbles present were blown away and the plate was measured according to the AGLA protease assay protocol described below.
First, 20 μl of culture supernatant was diluted with 180 μl 27.5% TIDE®+detergent solution and placed in the iEMS shaker. The plate covered with a plate seal was incubated for a total of 60 minutes at 32° C. at 900 rpm. In addition, 20 μl of culture supernatant was diluted with 180 μl 27.5% TIDE®−solution and placed in the iEMS shaker. This plate covered with a plate seal was incubated for a total of 180 minutes at 50° C. at 900 rpm.
Subsequently after the respective incubations, 20 μl of either of these solutions were diluted with 180 μl MES assay buffer and 10 μl of this dilution were diluted with 190 μl AGLA-substrate solution in a pre-warmed plate (Greiner 655076) at 25° C.
Fluorescence measurements were taken at excitation of 350 nm and emission of 420 nm. The spectrofluorometer software calculated the reaction rates (=slope) of the increase in fluorescence for each well to a linearly regressed line of (milli-) RFU/min. The ratio of the residual and initial AGLA activity was used to express the 25% TIDE® 2× stability as follows: Percentage of residual activity=[slope of stressed]*100/[slope of unstressed]
For each sample (thermolysin and variants thereof) the performance index was calculated by dividing the residual activity of the variant by the residual activity of thermolysin. The performance index compared the stability of the variant and the standard thermolysin enzyme (e.g., wild type or parental enzyme), determined under the same conditions.
In these experiments, the liberation of Abz-AG by protease cleavage of Abz-AGLA-Nba was monitored by fluorescence spectrometry (Ex. 350/Em. 420). The rate of appearance of Abz-AG was a measure of proteolytic activity.
The Abz-AGLA-Nba assay solution was prepared by adding 1 ml of the Abz-AGLA-Nba stock to 19 ml MES substrate buffer and mixed well for at least 2 minutes. Subsequently the thermolysin or variants thereof containing culture supernatants were diluted with MES assay buffer to a concentration of 1-6 μg protein per ml.
The assay was performed by adding 10 μl of diluted protease solution to each well, followed by the addition of 190 μl Abz-AGLA-Nba assay solution that was pre-equilibrated for at least 15 minutes at 25° C. The solutions were vigorously mixed, and the liberation of Abz-AG by protease cleavage of Abz-AGLA-Nba was monitored by fluorescence spectrometry at 25° C. in kinetic mode with excitation set at 350 nm and emission set at 420 nm. The rate of appearance of Abz-AG was a measure of proteolytic activity in the samples. The protease activity was expressed as RFU (relative fluorescence units·min^−1).
As described in Example 1, the stability of thermolysin variants was measured by determining the AGLA activity before and after incubation in the presence of TIDE® 2× heavy duty liquid (HDL) detergent at an elevated temperature. The tables contain the relative stability values compared to wild-type thermolysin, which is the quotient of the variant residual activity divided by the wild-type residual activity. A value greater than one indicates higher stability in the presence of detergent. […]

| Molecule | PI (performance index), stain removal [1] | PI (relative stability), 25% TIDE 2X with DTPA [2] | PI (relative stability), 25% TIDE 2X without DTPA [3] |
| --- | --- | --- | --- |
| B1 | 1.08 | 1.12 |  |
| B2 | 1.24 | 1.01 |  |
| B3 | 1.22 | 1.02 |  |
| B4 | 1.29 | 1.03 |  |
| B5 | 1.75 | 1.26 |  |
| B6 | 1.06 | 1.09 |  |
| B7 | 1.11 | 1.19 |  |
| B8 | 1.11 | 1.10 |  |
| B9 | 1.25 | 1.11 |  |
| B10 | 1.17 | 1.11 |  |
| B11 |  | 1.05 | 1.28 |
| B12 | 1.22 | 1.15 |  |
| B13 | 1.03 | 1.08 |  |
| B14 |  | 1.23 | 1.17 |
